Molecular target: full-length CTLA-4 (flCTLA-4) secreted by human dendritic cells on microvesicles/exosomes (human) (UniProt P16410)
Test: cell-based or functional assay

Chain of UniProt P16410 (P16410 36-223 limits assumed): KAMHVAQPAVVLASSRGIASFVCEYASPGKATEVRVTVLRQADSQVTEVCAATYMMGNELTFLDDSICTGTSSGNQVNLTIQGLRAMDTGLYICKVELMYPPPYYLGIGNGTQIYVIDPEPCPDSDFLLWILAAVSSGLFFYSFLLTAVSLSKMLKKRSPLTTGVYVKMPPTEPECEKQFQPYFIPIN

Substance: αHuman CTLA-4 clone BNI3 (cat #: 555851, BD Pharmingen) (antibody)
- percentage of CFSE+ recipient DC after pre-clearance of supernatant with αCTLA-4 beads (20 minutes at 4 C, 0.1% sodium azide): 45%
- uptake of CFSE-labeled exosomes by unlabeled DC after incubation of supernatant with αCTLA-4 coated beads, antibody at 5 µg/ml: 26%
- uptake of CFSE-labeled exosomes by unlabeled DC after incubation of supernatant with αCTLA-4 coated beads, antibody at 50 µg/ml: 35%

Reference: patent US20180117084A1
